Among the data in patent publication US20220356470 are activity (% survivors edited) and activity (% survivors with deletion (17/20)) values, retold here.

Data set [1] concerns Type I-C Cascade-Cas3 D370A (helicase mutant) Cas3 D370A (Pseudomonas aeruginosa). As to the kind of experiment: cell_activity. Particulars: smaller deletions; PAM not stated.
Data set [2] deals with Type I-C Cascade with Cas3-Cas8 tether (Pseudomonas aeruginosa). As to the kind of experiment: cell_activity. Particulars: smaller deletions than untethered; PAM not stated.

“crRNA targeting 200 bp upstream of phzM ; site 200 bp upstream of phzM”: the activity (% survivors edited) in data set [1] worked out at 25. This substance also came in with an activity (% survivors with deletion (17/20)) in data set [2] of 85.
